Measurements as given in patent publication US20200040103A1 (Genentech, published 2020).

Legend:
human KLK7 = human KLK7 (human, UniProt P49862 30-253, limits assumed); experiment: column 6: KLK7 activity assay, 5 nM KLK7
Method: KLK7 selectivity assay was performed at room temperature in a 384-well plate (black, low-volume round bottom, Corning #4514) with a final reaction volume of 15 μL. Inhibitor samples were diluted to 3× final concentration in assay buffer (75 mM Tris, pH 8.0, 150 mM NaCl, 0.01% TWEEN® 20). Reactions lacking inhibitor and reactions lacking enzyme were used as 100% and 0% activity controls, respectively. Inhibitor or control samples (5 μL) were added to the plate followed by 5 μL KLK7 (Genentech) in assay buffer at a final concentration of 5 nM. After 30 min, 5 μL of Suc-Leu-Leu-Val-Tyr-AMC (Bachem I-1395, 25 mM stock solution in water) in assay buffer was added at a final concentration of 100 μM. […] Reaction rates (expressed as RFU/s) were calculated by linear regression in the range 2040-4488 seconds. Reaction rates were normalized to the values of the 0% and 100% activity controls and fit with a 4-parameter equation to calculate IC₅₀ values. […]

[1] = biological target: T1, trypsin isolated from bovine pancreas (bovine, UniProt P00760 24-246); experiment: column 9: trypsin activity assay, 0.25 nM trypsin
T1 construct: also called bovine trypsin
T1 sequence (P00760 24-246): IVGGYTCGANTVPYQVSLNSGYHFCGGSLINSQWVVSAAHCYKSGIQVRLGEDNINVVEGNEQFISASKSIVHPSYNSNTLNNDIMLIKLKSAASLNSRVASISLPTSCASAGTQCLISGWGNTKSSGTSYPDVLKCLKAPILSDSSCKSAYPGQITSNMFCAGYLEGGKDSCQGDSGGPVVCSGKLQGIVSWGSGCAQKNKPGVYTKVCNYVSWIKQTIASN
Method: 0.25 nM trypsin isolated from bovine pancreas and 0.19-100 nM anti-KLK5 inhibitors were pre-incubated for 30 minutes prior to addition of 50 μM Boc-VPR-AMC. […] The results for the KLK5 inhibitors are depicted as follows: FIG. 9A: Spink9.SRE.Fc, FIG. 9B: mAb1108, FIG. 9C: 3-3F5, FIG. 9D: 10C8, FIG. 9E: 9B6, FIG. 9F: 9F2, FIG. 9G: 9H3, FIG. 9H: 9H5, FIG. 9I: 8B7, FIG. 9J: 2B11, FIG. 9K: 8F5, FIG. 9L: 10C5, FIG. 9M: 10H3 and FIG. 9N: 2-3F4.
(§1) Trypsin selectivity assay was performed at room temperature in a 384-well plate (black, low-volume round bottom, Corning #4514) with a final reaction volume of 15 μL. Inhibitor samples were diluted to 3× final concentration in assay buffer (75 mM Tris, pH 8.0, 150 mM NaCl, 0.01% TWEEN® 20). Reactions lacking inhibitor and reactions lacking enzyme were used as 100% and 0% activity controls, respectively. Inhibitor or control samples (5 μL) were added to the plate followed by 5 μL trypsin (Sigma Aldrich T8003, Lot SLBM2321V, 42.0 μM stock solution in 1 mM HCl) in assay buffer at a final concentration of 0.25 nM. After 30 minutes, 5 μL of Boc-Val-Pro-Arg-AMC (Bachem I-1120, 31.3 mM stock solution in water) in assay buffer was added at a final concentration of 50 μM. […] Reaction rates (expressed as RFU/s) were calculated by linear regression in the range 204-3570 seconds. Reaction rates were normalized to the values of the 0% and 100% activity controls and fit with a 4-parameter equation to calculate IC₅₀ values. In the case of bivalent inhibitors, the raw IC₅₀ value was multiplied by two.

human KLK1 = human KLK1 (human, UniProt P06870 25-262, limits assumed); experiment: column 7: KLK1 activity assay, 3 nM KLK1
Sequence of human KLK1 (P06870 25-262 limits assumed): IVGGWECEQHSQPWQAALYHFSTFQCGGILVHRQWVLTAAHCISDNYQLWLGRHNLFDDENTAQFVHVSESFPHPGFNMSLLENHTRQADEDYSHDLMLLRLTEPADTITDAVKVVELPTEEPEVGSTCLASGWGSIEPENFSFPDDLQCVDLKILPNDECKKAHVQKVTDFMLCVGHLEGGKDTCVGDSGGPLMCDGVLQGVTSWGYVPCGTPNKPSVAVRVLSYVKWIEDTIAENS

human KLK4 = human KLK4 (human, UniProt Q9Y5K2 31-254, limits assumed); experiment: column 8: KLK4 activity assay, 2 nM KLK4
Sequence of human KLK4 (Q9Y5K2 31-254 limits assumed): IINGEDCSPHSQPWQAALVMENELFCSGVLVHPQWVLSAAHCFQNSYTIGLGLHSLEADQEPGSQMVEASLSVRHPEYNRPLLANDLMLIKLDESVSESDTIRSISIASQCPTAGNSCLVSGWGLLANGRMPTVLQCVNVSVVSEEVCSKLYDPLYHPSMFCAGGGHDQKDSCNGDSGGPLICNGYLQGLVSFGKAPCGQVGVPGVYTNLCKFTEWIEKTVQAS
Method: as §1, with “KLK4” for “Trypsin”, “KLK4 (R&D Systems, 1719-SE,” for “trypsin (Sigma Aldrich T8003,”, “MSY0116011, activated according to R&D systems protocol)” for “SLBM2321V, 42.0 μM stock solution in 1 mM HCl)”, “2” for “0.25”, “510-3570” for “204-3570”
In FIG. 8, the ability of Spink9.SRE.Fc, mAb1108 or 12 selected anti-KLK5 antibodies to inhibit the proteolysis of the substrate, Boc-VPR-AMC, by human KLK4 was assessed using an enzymatic assay. […] The results were expressed as a percentage of maximum KLK4 activity (% control).

Measured: IC50

Sequence of human KLK7 (P49862 30-253 limits assumed): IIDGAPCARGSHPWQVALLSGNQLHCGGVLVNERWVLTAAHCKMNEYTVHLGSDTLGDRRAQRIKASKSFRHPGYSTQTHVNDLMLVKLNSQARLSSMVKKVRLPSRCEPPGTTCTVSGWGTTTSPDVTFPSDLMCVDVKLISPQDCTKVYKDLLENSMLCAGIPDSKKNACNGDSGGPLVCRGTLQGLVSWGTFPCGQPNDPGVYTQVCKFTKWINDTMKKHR

B1: 9B6 (antibody, V domains shown)
VH: QSVKESEGGLFKPTDNLTLTCTVSGFSLSNYGVTWVRQAPGNGLEYIGFIGSGGSAYYASWAKSRSTITRNTNLNTVTLKMTSLTAADTATYFCARDDVGGGKSLDIWGPGTLVTVSS
VL: NIVMTQTPASVEVAVGGTVVIKCQASQNIGDYLSWYQQKPGQRPKLLIYSASTLASGVPSRFKGSGSGTQFTLTISDLECADAATYYCHQDYTSNDVENTFGGGTEVVVK
> 100 nM: all assays above

B2: 8B7 (antibody, V domains shown)
VH: QSVKESEGGLFKPTDNLTLTCTVSGFSLSNYGVTWVRQAPGNGLEYIGFIGSSGSAYYASWAKSRSTITRNTNLNTVTLKMTSLTAADTATYFCARDDVGGGKSLDIWGPGTLVTVSS
VL: NIVMTQTPASVEVAVGGTVTIKCQASQSIGSYLSWYQQKPGQPPKLLIYDASNLASGVPSRFKGSGSGTQFTLSISDLECADAATYYCHQDYTSNNVDNTFGGGTEVVIK
> 100 nM: all assays above

B3: 9F2 (antibody, V domains shown)
VH: QSVKESEGGLFKPTDNLTLTCTVSGFSLSSYGVSWVRQAPGNGLEYIGFIGSGGSPYYASWAKSRSTITRNTNLNTVTLKMTSLTAADTATYFCARDDVGGGKSLDIWGPGTLVTVSS
VL: NIVMTQTPASVEVAVGGTVIIKCQASQSISNYLSWYHQKSGQRPRLLIYSASTLASGVPSRFKGSGSGTQFTLTISDLECADAATYYCHQDYTSNSVDNTFGGGTEVVVK
> 100 nM: all assays above

B4: 9H3 (antibody, V domains shown)
VH: QSVKESEGGLFKPTDTLTLTCTVSGFSLSGYGVSWVRQAPGKGLEYIGFIGSGGSAYYASWAKSRSTITRNTNLNTVTLKMTRLTAADTATYFCARDNVGGDMSLDIWGPGTLVTVSS
VL: DIVMTQTPASVSEPVGGTVTIKCQASQNINNYLSWYQQKPGQPPKQLIYAASTLASGVPSRFKGSGSGTQFTLTISDLECADAATYYCHQDYTSNNVDNTFGGGTEVVVK
> 100 nM: all assays above

B5: 9H5 (antibody, V domains shown)
VH: QSVKESEGGLFKPTDNLTLTCTVSGFSLSSYGVSWVRQAPGNGLEYIGFIGSGGFAYYASWAKSRSTITRNTNLNTVTLKMTSLTAADTATYFCARDDVGGGKSLDIWGPGTVVTVSV
VL: NIVMTQTPASVEAAVGGTVTINCQASQSISSYLSWYQQKSGQRPKLLIFSASTLASGVPSRFTGSGSGTQFTLTISDLQCADAATYYCHQDYTSSNVDNTFGGGTEVVVK
notes: Rabbit monoclonal; also called Chimeric 9H5; KLK5.9H5 (complex sample)
> 100 nM: all assays above

B6: 10C8 (antibody, V domains shown)
VH: QSVKESEGGLFKPTDNLTLTCTVSGFSLSSYGVSWVRQAPGNGLEYIGFIGSGGFAYYASWAKSRSTITRNTNLNTVTLKMTSLTAADTATYFCARDDVGGGRSLDIWGPGTVVTVSS
VL: NIVMTQTPASVEVAMGGTVIIKCQASQSISTYLSWYQQKPGQPPKLLIYSASTLASGVSSRFEGSGSGTQFTLTISGVQCADAATYYCHQDYTSNNVDNTFGGGTEVVVK
> 100 nM: all assays above

B7: 8F5 (antibody, V domains shown)
VH: QSVKESEGGLFKPTDTLTLTCTVSGFSLSSYPISWVRQAPGNGLEWIGYITSEYGVAYYATWAESRSTITRNTNLNTVTLKMTSLTAADTATYFCVRENPTYGYAYDAWGPGTLVTVSS
VL: AYDLTQTPASVEAAVGGTVTINCQASESIGNELSWYQQKSGQPPKLLIYQASTLASGVPSRFKGSGSGTDFTLTISDLECADAATYYCAQGFSSSGVENVFGGGTEVVVK
> 100 nM: all assays above

B8: 10C5 (antibody, V domains shown)
VH: QSLEESGGGLVKPTDTLTLTCTVSGFSLSSYGVTWVRQAPGRGLEWIGYITSNYGVSYYASWAKSRSTITRNTNLNTVTLKMTSLTAADTATYFCARENPDYGYAYDAWGPGTLVTVSV
VL: AYDMTQTPASLEAAVGGTVTINCQASESISNELSWYQQKPGQPPDLLIYYASTLASGVPSRFKGSGSGTEFTLTISDLECADAATYYCAQGFGSSGVENVFGGGTEVVVK
notes: Rabbit monoclonal; also called Chimeric 10C5; KLK5.10C5 (complex sample)
> 100 nM: all assays above

B9: 2B11 (antibody, V domains shown)
VH: QSVKESEGGLFKPTDTLTLTCTVSGFSLINYGVSWVRQAPGKGLEWIGYIGSAGSTYYATWAKSRATITRNTNLNTVTLKMTSLTAADTATYFCARAAYSAGSADAEDIWGPGTLVTVSS
VL: AYYMTQTPASVEAAVGGTVTIKCQASQSISNYVAWYQQKPGQPPKLLIYRASTLASGVSSRFSGSGSGTEFTLTISDLECADAATYYCHQGYSSSNVDNIFGGGTEVVVK
> 100 nM: all assays above

B10: 10H3 (antibody, V domains shown)
VH: QSVKESEGGLIKPTDTLTLTCTVSGFSLSTFAINWVRQAPGNGLEWIGAIGRGGSAYYASWAKSRSTITKNTNLNTVTLKMTRPTAADTATYFCARENAGSGWGELDIWGPGTLVTVSS
VL: AYEMTQTPASVEVAVGGTVTINCQASESISSDLAWYQQKPGQRPKLLIYAASTLASGVPSRFKGSGSGTEFTLSISGVQCADAATYYCQQGYTWNNVDNVFGGGTEVVVK
notes: also called KLK5.10H3 (complex sample)
> 100 nM: all assays above

B11: 2-3F4 (antibody, V domains shown)
VH: QSVEESRGGLIKPTDTLTLTCTASGFSLSNYGVSWVRQAPGNGLEYIGFIGYGGSTYYASWAKSRSTITRNTNLNTVTLQMTSLTAADTATYFCARLCGVDCADALDSWGPGTLVTVSS
VL: AYYMTQTPASVEVAVGGTVTIKCQASEDIGSYCSWYQQKPGQPPKLLIYDASDLASGVPSRFKGSGSGTDFTLTISGVQCDDAATYYCQQDYTGNNVDNTFGGGSEVVVK
> 100 nM: all assays above

B12: 3-3F5 (antibody, V domains shown)
VH: QSVKESEGGLFKPTDTLTLTCTVSGFSLNDYGVSWVRQAPGNGLEWIGAIGSSGVAWYANWAKGRSTITRNTNLNTVTLKMASLTAADTATYFCARDRDYGYRADDATSGMDLWGPGTLVTVSS
VL: AYDMTQTPASVEAAVGGTVTIKCQASESIGNALAWYQQKPGQPPKLLIYDASDLASGVPSRFKGSGSGTQFTLTISGVECADAATYYCQQGDSHNNVDNIFGGGTEVVVK
notes: Rabbit monoclonal; also called Chimeric 3-3F5
> 100 nM: all assays above
